Here are results for eight molecules from US20160347850A1 (AbbVie / Abbott, published 2016).

Where a chain is given by its changes, count along the chain named. Names and notes keep the numbering of the source. Like-named read-outs stand apart in the source and are kept apart here.

Assay [1] addresses T1, Human CD40 (human, UniProt P25942 21-277). As to the kind of experiment: cell-based or functional assay.
The target of assay [2] is T1, Human CD40. As to the kind of experiment: FACS blocking of sCD40L binding to CD40 expressing HEK cells. The procedure:
FACS analysis was also used to determine whether the three chimeric antibodies could inhibit binding of soluble CD40 ligand (sCD40L) to CD40. Using CD40 expressing HEK cells, IC50 values were measured. As described in Table 10, each of the chimeric antibodies was able to block CD40 binding to its ligand.

Assay [3] has as its target T2, cyno CD40 (cynomolgus monkey, UniProt G7PG38 21-278).
T2 construct: whole, on cells; also called cyCD40; cynomolgus monkey CD40
The assay can be described thus: FACS on HEK cells expressing cyno CD40.

Assay [4] concerns the target T1, Human CD40. As to the kind of experiment: cell-based or functional assay. This is another data set of the same source.
Assay [5] has as its target T1, Human CD40. As to the kind of experiment: cell-based or functional assay. The source holds these as a separate data set.
Assay [6] deals with T2, cyno CD40. As to the kind of experiment: Alexa 647 labeled Ab102 binding to CD40 on the surface of cynomolgus monkey B cells. The procedure:
(§1) The cross-reactivity of Ab102 with CD40 from various species was tested. […] Binding of Ab102 to mouse, rat, and rabbit CD40 could not be detected at concentrations up to 30 μg/mL (200 nM).

Assay [7] has as its target T1, Human CD40. As to the kind of experiment: cell-based or functional assay. The source holds these as a separate data set.
The target of another assay is T3, mouse CD40 (mouse, UniProt P27512 20-289).
T3 construct: whole, on cells
T3 sequence (looked up): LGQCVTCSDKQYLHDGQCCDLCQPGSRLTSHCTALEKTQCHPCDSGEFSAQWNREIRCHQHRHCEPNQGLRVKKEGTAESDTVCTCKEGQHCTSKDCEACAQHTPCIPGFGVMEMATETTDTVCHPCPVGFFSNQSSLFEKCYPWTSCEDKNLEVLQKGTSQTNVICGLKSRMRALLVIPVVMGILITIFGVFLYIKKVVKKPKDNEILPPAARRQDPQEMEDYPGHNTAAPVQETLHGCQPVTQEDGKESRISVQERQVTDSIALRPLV
As to the kind of experiment: Alexa 647 labeled Ab102 on the surface of B cells.

The next assay deals with T4, rat CD40 (rat, UniProt A6JXD6 20-289).
T4 sequence: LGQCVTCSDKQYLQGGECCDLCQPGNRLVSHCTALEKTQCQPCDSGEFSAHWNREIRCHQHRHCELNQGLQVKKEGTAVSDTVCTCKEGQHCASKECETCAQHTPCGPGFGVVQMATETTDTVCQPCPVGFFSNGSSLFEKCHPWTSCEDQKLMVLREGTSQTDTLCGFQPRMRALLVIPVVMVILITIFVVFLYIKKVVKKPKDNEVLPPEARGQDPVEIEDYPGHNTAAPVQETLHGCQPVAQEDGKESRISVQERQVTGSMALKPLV
As to the kind of experiment: Alexa 647 labeled Ab102 on the surface of B cells.

The target in assay [8] is T1, Human CD40. As to the kind of experiment: Alexa 647 labeled Ab102 binding to CD40 on the surface of human B cells. The procedure:
as §1

Assay [9] addresses T1, Human CD40. As to the kind of experiment: cell-based or functional assay. The source holds these as a separate data set.
Assay [10] concerns the target T1, Human CD40. The assay can be described thus: cell-based or functional assay. This is another data set of the same source.
The target of assay [11] is T2, cyno CD40. The assay can be described thus: FACS binding on HEK cells expressing cyCD40.

T1 sequence (P25942 21-277 limits assumed): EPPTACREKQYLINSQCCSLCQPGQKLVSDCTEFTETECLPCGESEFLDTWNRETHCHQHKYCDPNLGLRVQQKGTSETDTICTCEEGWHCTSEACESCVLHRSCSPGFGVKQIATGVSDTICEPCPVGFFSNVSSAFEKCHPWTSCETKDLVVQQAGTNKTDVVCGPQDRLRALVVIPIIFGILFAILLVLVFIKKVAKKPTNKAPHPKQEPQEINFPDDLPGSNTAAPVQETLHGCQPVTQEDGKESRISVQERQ

As for MEGACD40L (Enzo) (ligand), the production of TNF from monocytes, EC50 (agonist assay format) with Human CD40 [1] worked out at 1.9 nM.

B1: chimeric Ab3 (chAb3) (antibody, V domains shown)
VH: QVQLQQSGAELARPGASVKMSCKAFGYTFTSYTMHWVKQRPGQGLEWIGYINPSSDYPNYNQKFKDKATLTADKSSSTAYMQLSSLTSEDSAVYYCARWGYSFDYWGQGTTLTVSS
VL: DIVMTQAAPSVSVIPGESVSISCRSSKSLLHSNGNTYLYWFLQRPGQSPQYLIYRMSTLASGVPDRFSGSGSGTAFTLRISRVEAEDVGVYYCMQHLEYPLTFGAGTKLELK
notes: also called chimeric Antibody 3
For B1, the IC50 with Human CD40 [2] was found to be 1.4 nM. Moreover, the binding result with cyno CD40 [3] was “no binding”. Further, in the assay with Human CD40 [4], the “Antagonist: His-CD40L reporter assay IC50” value stood at 0.2 nM and the “Antagonist: Jurkat/Reporter assay IC50” value came out at 0.9 nM.

B2: huAb1v4 (antibody, V domains shown)
VH: EVQLVESGGGLVKPGGSLRLSCAASGFTFSDYGMNWVRQAPGKGLEWIAYISSGRSNIYYADTVKGRFTISRDNAKNSLYLQMNSLRAEDTAVYYCARSWGYFDVWGQGTTVTVSS
VL: DIVMTQSPDSLAVSLGERATINCKSSQSLLNPGNQKNYLTWFQQKPGQPPKLLIYWASTRESGVPDRFSGSGSGTDFTLTISSLQAEDVAVYYCQNDYTYPLTFGQGTKLEIK
As to B2, the “Agonist: huCD40 reporter assay IC50” value with Human CD40 [5] came to 49 nM.

B3: Ab102 (antibody, human IgG1, kappa, L234A L235A, V domains shown)
VH: B2 VH with S56G
VL: DIVMTQSPDSLAVSLGERATINCKSSQSLLNRGNQKNYLTWFQQKPGQPPKLLIYWASTRESGVPDRFSGSGSGTDFTLTISSLQAEDVAVYYCQNDYTYPLTFGQGTKLEIKR
notes: Humanized IgG1/kappa with L234A, L235A, T250Q, M428L (LALA-QL); also called VL huAbv1/VH huAb1v1CDR2v7/hCg1/k-LALA-QL; mAb CD40 Ab102 [hu IgG1/k]; LALA QL
On to B3, for which the EC50 in the assay with cyno CD40 [6] turned out to be 1.4 nM. For the same molecule, in the assay with Human CD40 [7], the “Monocyte Activation Assay, Antagonist IC50 (nM), Experiment 1” value was 0.06 nM; the “Monocyte Activation Assay, Antagonist IC50 (nM), Experiment 2” value was 0.23 nM; the “Monocyte Activation Assay, Antagonist IC50 (nM), Experiment 3” value was determined as 0.11 nM. Moreover, the binding result in the assay with mouse CD40 is on record as “no binding (tested: 30 µg/mL (200 nM))”. For the same molecule, the binding result with rat CD40 was “no binding (tested: 30 µg/mL (200 nM))”. This molecule also came in with an EC50 in the assay with Human CD40 [8] of 0.89 nM.

B4: huAb1v1CDR2v7 (antibody, V domains shown)
VH: B2 VH with S56G
VL: B2 VL with P32R
For B4, the “antagonistic activity in comparison to antibody huAb1v1” value with Human CD40 [9] amounted to 20 fold. Besides, the “Antagonist: Jurkat/Reporter assay (IC50 nM)” value with Human CD40 [10] was 2.69 nM.

B5: chimeric Ab1 (chAb1) (antibody, V domains shown)
VH: B2 VH with R19K, L20V, G42E, S78T, Y80F, N84T, A88S, V93M, Q108T
VL: DIVMTQSPSSLTVTAGEMVTMSCKSSQSLLNSGNQKNYLTWFQQKPGQPPKLLIYWASTRESGVPDRFAGSGSGTDFTLTISSVQAEDLAVYYCQNDYTYPLTFGAGTKLEIK
notes: Murine Ab1 variable regions on human constant regions; also called chimeric antibody (Antibody 1 (Ab1))
In turn, B5 returned an IC50 with Human CD40 [2] of 2.3 nM. In the assay with Human CD40 [4], the “Antagonist: His-CD40L reporter assay IC50” value was found to be 0.4 nM and the “Antagonist: Jurkat/Reporter assay IC50” value was found to be 51 nM.

B6: chimeric Ab2 (chAb2) (antibody, V domains shown)
VH: EVQLVESGGGLVKPGGSLKVSCAASGFTFSDYGMNWVRQSPEKGLEWIAYISSGRGNIYYADTVKGRFTISRDNAKNTLFLQMTSLRSEDTAMYYCARSWGYFDVWGTGTTVTVSS
VL: B5 VL with M18K, A69T, I112L
Molecule B6 had an IC50 in the assay with Human CD40 [2] of 1.4 nM. For the same molecule, the binding result with cyno CD40 [11] is listed as “binds”. Besides, in the assay with Human CD40 [4], the “Antagonist: His-CD40L reporter assay IC50” value worked out at 0.3 nM and the “Antagonist: Jurkat/Reporter assay IC50” value was 3.4 nM.

B7: huAb1v5 (antibody, V domains shown)
VH: B2 VH
VL: B2 VL with P32T
Take B7: the “Antagonist: Jurkat/Reporter assay IC50” value in the assay with Human CD40 [5] is above 100 nM.
